To fix the notation:
B1: 2/99 VH1/VL14 (antibody, V domains shown)
VH: VQLVETGGGLIQPGGSLRLSCAASGFSLSSYAMSWVRQAPGKGLEWVGYIWSGGSTDYADSVKGRFTISRDNSKNTLYLQMNSLRAEDTAVYYCARRYGTSYPDYGDANGFDPWGQGTLVTVSS
VL: DIVMTQSPDSLAVSLGERATINCKSSQSISSYLSWYQQKPGQRPKLLIYRASTLASGVPDRFSGSGSGTDFTLTISSLQAEDVAVYYCQQSYSSSNVDNTFGGGTKVEIK
B2: 2/99 VH2/VL14 (antibody, V domains shown)
VH: EVQLVETGGGLIQPGGSLRLSCAASGFSLSSYAMSWVRQAPGKGLEWVGYIWSGGSTDYADSVKGRFTISRDNSKNTLYLQMNSLRAEDTAVYYCARRYGTSYPDYGDANGFDPWGQGTLVTVSS
VL: B1 VL
B3: 2/99 VH5/VL14 (antibody, V domains shown)
VH: B1 VH with V1Q, Q2S, L3M, V4E, Q116P
VL: B1 VL
B4: 2/99 VH7/VL14 (antibody, V domains shown)
VH: B1 VH with V1Q, V47I, D60S, S61W, V62A
VL: B1 VL
B5: 2/99 VH6/VL14 (antibody, V domains shown)
VH: B1 VH with V1Q, V47I
VL: B1 VL
B6: 2/99 VH12/VL10 (antibody, V domains shown)
VH: QVQLQESGPGLVKPSETLSLTCTVSGFSLSSYAMSWIRQPPGKGLEWIGYIWSGGSTDYNPSLKSRVTISVDTSKNQFSLKLSSVTAADTAVYYCARRYGTSYPDYGDANGFDPWGQGTLVTVSS
VL: DIQMTQSPSSLSASVGDRVTITCRASQSISSYLSWYQQKPGKAPKLLIYRASTLASGVPSRFSGSRSGTDFTLTISSLQPEDFATYYCQQSYSSSNVDNTFGGGTKVEIK
B7: 2/99 VH2/VL12 (antibody, V domains shown)
VH: B2 VH
VL: B6 VL with S34A, S91H
B8: 2/99 VH8/VL12 (antibody, V domains shown)
VH: QQLVETGGGLIQPGGSLRLSCAASGFSLSSYAMSWVRQAPGKGLEWIGYIWSGGSTDYASWAKGRFTISKTSTTLYLQMNSLRAEDTAVYYCARRYGTSYPDYGDANGFDPWGQGTLVTVSS
VL: B6 VL with S34A, S91H
B9: 2/99 VH17/VL12 (antibody, V domains shown)
VH: QQLQESGPGLVKPSETLSLTCTVSGFSLSSYAMSWVRQPPGKGLEWIGYIWSGGSTDYNPSLKSRVTISKDTSKNQVSLKLSSVTAADTAVYYCARRYGTSYPDYGDANGFDPWGPGTLVTVSS
VL: B6 VL with S34A, S91H
B10: 2/99 VH19/VL12 (antibody, V domains shown)
VH: B9 VH with Q2S, L3M, E15Q, V36I, P39H, N59A, K70V, V77F, P116Q
VL: B6 VL with S34A, S91H
B11: 2/99 VH13/VL10 (antibody, V domains shown)
VH: B6 VH with F78V
VL: B6 VL
B12: 2/99 VH9/VL12 (antibody, V domains shown)
VH: B1 VH with V1Q, V4L, T6S, I11V, S27T, L28F, R96K
VL: B6 VL with S34A, S91H
B13: 2/99 VH15/VL12 (antibody, V domains shown)
VH: B9 VH with K70V, P116Q
VL: B6 VL with S34A, S91H
B14: 2/99 VH5/VL12 (antibody, V domains shown)
VH: B1 VH with V1Q, Q2S, L3M, V4E, Q116P
VL: B6 VL with S34A, S91H
B15: 2/99 VH18/VL10 (antibody, V domains shown)
VH: B6 VH with E16Q, P40H, N60A
VL: B6 VL
B16: 2/99 VH21/VL10 (antibody, V domains shown)
VH: QSMQESGPGLVKPSQTLSLTCTVSGFSLSSYAMSWIRQHPGKGLEWIGYIWSGGSTDYASWAKSRVTISVDTSKNQVSLKLSSVTAADTAVYYCARRYGTSYPDYGDANGFDPWGQGTLVTVSS
VL: B6 VL
B17: 2/99 VH6/VL12 (antibody, V domains shown)
VH: B1 VH with V1Q, V47I
VL: B6 VL with S34A, S91H
B18: 2/99 VH12/VL12 (antibody, V domains shown)
VH: B6 VH
VL: B6 VL with S34A, S91H
B19: 2/99 VH20/VL10 (antibody, V domains shown)
VH: B16 VH with S60P, W61S, A62L
VL: B6 VL
B20: 2/99 VH16/VL12 (antibody, V domains shown)
VH: B9 VH with K70V
VL: B6 VL with S34A, S91H
B21: 2/99 VH18/VL12 (antibody, V domains shown)
VH: B6 VH with E16Q, P40H, N60A
VL: B6 VL with S34A, S91H
B22: 2/99 VH22/VL10 (antibody, V domains shown)
VH: B16 VH with I36V
VL: B6 VL
B23: 2/99 VH21/VL12 (antibody, V domains shown)
VH: B16 VH
VL: B6 VL with S34A, S91H
B24: 2/99 VH19/VL10 (antibody, V domains shown)
VH: B16 VH with S60P, W61S, A62L, V77F
VL: B6 VL
B25: 2/99 VH11/VL12 (antibody, V domains shown)
VH: B1 VH with V1Q, V4L, T6S, I11V
VL: B6 VL with S34A, S91H
B26: 2/99 VH16/VL10 (antibody, V domains shown)
VH: B9 VH with K70V
VL: B6 VL
B27: 2/99 VH23-DANG/VL10 (antibody, V domains shown)
VH: QSMQESGPGLVKPSQTLSLTCTVSGFSLSSYAMSWIRQHPGKGLEWIGYIWSGGSTDYASWAKSRVTISKTSTTVSLKLSSVTAADTAVYYCARRYGTSYPDYGDANGFDPWGQGTLVTVSS
VL: B6 VL
B28: 2/99 VH17/VL10 (antibody, V domains shown)
VH: B9 VH
VL: B6 VL
B29: 2/99 VH7/VL12 (antibody, V domains shown)
VH: B1 VH with V1Q, V47I, D60S, S61W, V62A
VL: B6 VL with S34A, S91H
B30: 2/99 VH22/VL12 (antibody, V domains shown)
VH: B16 VH with I36V
VL: B6 VL with S34A, S91H
B31: 2/99 VH15/VL10 (antibody, V domains shown)
VH: B9 VH with K70V, P116Q
VL: B6 VL
B32: 2/99 VH20/VL12 (antibody, V domains shown)
VH: B16 VH with S60P, W61S, A62L
VL: B6 VL with S34A, S91H
B33: 2/99 VH1/VL12 (antibody, V domains shown)
VH: B1 VH
VL: B6 VL with S34A, S91H
B34: 2/99 VH13/VL12 (antibody, V domains shown)
VH: B6 VH with F78V
VL: B6 VL with S34A, S91H

Changes are numbered by the printed parent chain.

Consider 34 molecules from US20180291110A1 (Hoffmann-La Roche, published 2018).

T1 sequence (P02786 89-760 limits assumed): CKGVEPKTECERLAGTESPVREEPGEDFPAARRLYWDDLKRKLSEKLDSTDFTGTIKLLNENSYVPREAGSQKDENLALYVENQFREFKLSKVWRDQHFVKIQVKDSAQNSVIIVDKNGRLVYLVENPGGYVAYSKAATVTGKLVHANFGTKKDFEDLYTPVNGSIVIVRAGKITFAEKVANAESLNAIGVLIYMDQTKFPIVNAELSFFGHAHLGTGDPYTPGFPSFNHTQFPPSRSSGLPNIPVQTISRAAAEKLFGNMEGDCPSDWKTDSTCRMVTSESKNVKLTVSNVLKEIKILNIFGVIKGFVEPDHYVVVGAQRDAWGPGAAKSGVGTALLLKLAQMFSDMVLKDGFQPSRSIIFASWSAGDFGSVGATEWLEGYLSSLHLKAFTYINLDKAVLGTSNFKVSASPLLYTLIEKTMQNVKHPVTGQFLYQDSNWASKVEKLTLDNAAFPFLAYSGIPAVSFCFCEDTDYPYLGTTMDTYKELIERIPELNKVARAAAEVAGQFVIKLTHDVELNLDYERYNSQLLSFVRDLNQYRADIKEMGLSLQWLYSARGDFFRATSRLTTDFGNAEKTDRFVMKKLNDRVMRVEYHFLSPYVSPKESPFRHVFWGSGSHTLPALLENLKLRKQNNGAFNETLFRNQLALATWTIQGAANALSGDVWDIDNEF

The experiment concerns the target T1, human transferrin receptor (recombinant, for surface plasmon resonance) (human, UniProt P02786 89-760).
T1 construct: also called huTfR; human transferrin receptor-biotinylated
In words: SPR 25C.
In general, koff refers to the rate constant with which the complex falls apart. Turning to B1, the koff turned out to be 0.00299 s⁻¹.

As to B2, the koff was 0.00244 s⁻¹.

Take B3: the koff turned out to be 0.00233 s⁻¹.

Regarding B4, the koff came to 0.00153 s⁻¹.

As for B5, the koff was found to be 0.0022 s⁻¹.

B6: the koff came out at 0.00779 s⁻¹.

With B7, the koff came out at 0.00814 s⁻¹.

Take B8: the koff was 0.00672 s⁻¹.

Consider B9, for which the koff was determined as 0.00284 s⁻¹.

As to B10, the koff came to 0.001 s⁻¹.

Consider B11, for which the koff turned out to be 0.00589 s⁻¹.

Consider B12, for which the dissociation rate constant (koff) was 0.001 s⁻¹.

B13: the koff stood at 0.00764 s⁻¹.

For the molecule B14, the koff is 0.001 s⁻¹.

Consider B15, for which the koff is 0.00746 s⁻¹.

In the case of B16, the off-rate (koff) worked out at 0.00211 s⁻¹.

With B17, the koff came to 0.00778 s⁻¹.

For B18, the koff was determined as 0.001 s⁻¹.

For the molecule B19, the koff was determined as 0.00705 s⁻¹.

Regarding B20, the koff is 0.00754 s⁻¹.

Consider B21, for which the koff came out at 0.001 s⁻¹.

Take B22: the koff worked out at 0.00209 s⁻¹.

Take B23: the koff is 0.00754 s⁻¹.

With B24, the koff worked out at 0.001 s⁻¹.

In the case of B25, the koff came out at 0.00787 s⁻¹.

For the molecule B26, the koff is 0.00424 s⁻¹.

B27: the koff was found to be 0.0012 s⁻¹.

As for B28, the koff is 0.00188 s⁻¹.

B29: the koff worked out at 0.00775 s⁻¹.

Turning to B30, the koff is 0.00644 s⁻¹.

As to B31, the koff was 0.00399 s⁻¹.

On to B32, for which the koff is 0.001 s⁻¹.

Turning to B33, the koff is 0.00705 s⁻¹.

For the molecule B34, the koff was 0.00785 s⁻¹.
